Sequences and labels used below:
B1: Rv1172c: MTB protein, novel CD4 T cell antigen; PE/PPE (protein, listed as Mycobacterium tuberculosis)
chain: MSFVFAAPEALAAAAADMAGIGSTLNAANVVAAVPTTGVLAAAADEVSTQVAALLSAHAQGYQQLSRQMMTAFHDQFVQALRASADAYATAEASAAQTMVNAVNAPARALLGHPLISADASTGGGSNALSRVQSMFLGTGGSSALGGSAAANAAASGALQLQPTGGASGLSAVGALLPRAGAAAAAALPALAAESIGNAIKNLYNAVEPWVQYGFNLTAWAVGWLPYIGILAPQINFFYYLGEPIVQAVLFNAIDFVDGTVTFSQALTNIETATAASINQFINTEINWIRGFLPPLPPISPPGFPSLP
B2: Rv0987: MTB protein, novel CD4 T cell antigen; Cell wall and cell processes (protein, listed as Mycobacterium tuberculosis)
chain: MNDQAPVAYAPLWRTAWRRLRQRPFQYILLVLGIALGVAMIVAIDVSSNSAQRAFDLSAAAITGKSTHRLVSGPAGVDQQLYVDLRRHGYDFSAPVIEGYVLARGLGNRAMQFMGTDPFAESAFRSPLWSNQNIAELGGFLTRPNGVVLSRQVAQKYGLAVGDRIALQVKGAPTTVTLVGLLTPADEVSNQKLSDLIIADISTAQELFHMPGRLSHIDLIIKDEATATRIQQRLPAGVRMETSDTQRDTVKQMTDAFTVNLTALSLIALLVGIFLIYNTVTFNVVQRRPFFAILRCLGVTREQLFWLIMTESLVAGLIGTGLGLLIGIWLGEGLIGLVTQTINDFYFVINVRNVSVSAESLLKGLIIGIFAAMLATLPPAIEAMRTVPASTLRRSSLESKITKLMPWLWVAWFGLGSFGVLMLWLPGNNLVVAFVGLFSVLIALALIAPPLTRFVMLRLAPGLGRLLGPIGRMAPRNIVRSLSRTSIAIAALMMAVSLMVGVSISVGSFRQTLANWLEVTLKSDVYVSPPTLTSGRPSGNLPVDAVRNISKWPGVRDAVMARYSSVFAPDWGREVELMAVSGDISDGKRPYRWIDGNKDTLWPRFLAGKGVMLSEPMVSRQHLQMPPRPITLMTDSGPQTFPVLAVFSDYTSDQGVILMDRASYRAHWQDDDVTTMFLFLASGANSGALIDQLQAAFAGREDIVIQSTHSVREASMFIFDRSFTITIALQLVATVVAFIGVLSALMSLELDRAHELGVFRAIGMTTRQLWKLMFIETGLMGGMAGLMALPTGCILAWILVRIINVRSFGWTLQMHFESAHFLRALLVAVVAALAAGMYPAWRLGRMTIRTAIREE
B3: Rv0442c: MTB protein, novel CD4 T cell antigen; PE/PPE (protein, listed as Mycobacterium tuberculosis)
chain: MTSPHFAWLPPEINSALMFAGPGSGPLIAAATAWGELAEKLLASIASLGSVTSELTSGAWLGPSAAAMMAVATQYLAWLSTAAAQAEQAAAQAMAIATAFEAALAATVQPAVVAANRGLMQLLAATNWFGQNAPALMDVEAAYEQMWALDVAAMAGYHFDASAAVAQLAPWQQVLRNLGIDIGKNGQINLGFGNTGSGNIGNNNIGNNNIGSGNTGTGNIGSGNTGSGNLGLGNLGDGNIGFGNTGSGNIGFGITGDHQMGFGGFNSGSGNIGFGNSGTGNVGLFNSGSGNIGIGNSGSLNSGIGTSGTINAGLGSAGSLNTSFWNAGMQNAALGSAAGSEAALVSSAGYATGGMSTAALSSGILASALGSTGGLQHGLANVLNSGLTNTPVAAPASAPVGGLDSGNPNPGSGSAAAGSGANPGLRSPGTSYPSFVNSGSNDSGLRNTAVREPSTPGSGIPKSNFYPSPDRESAYASPRIGQPVGSE
B4: Rv0278c: MTB protein, novel CD4 T cell antigen; PE/PPE (protein, listed as Mycobacterium tuberculosis)
chain: MSFVIAAPEVIAAAATDLASLGSSISAANAAAAANTTALMAAGADEVSTAIAALFGAHGQAYQALSAQAQAFHAQFVQALTSGGGAYAAAEAAAVSPLLDPINEFFLANTGRPLIGNGANGAPGTGANGGDGGWLIGNGGAGGSGAAGVNGGAGGNGGAGGNGGAGGLIGNGGAGGAGGVASSGIGGSGGAGGNAMLFGAGGAGGAGGGVVALTGGAGGAGGAGGNAGLLFGAAGVGGAGGFTNGSALGGAGGAGGAGGLFATGGVGGSGGAGSSGGAGGAGGAGGLFGAGGTGGHGGFADSSFGGVGGAGGAGGLFGAGGEGGSGGHSLVAGGDGGAGGNAGMLALGAAGGAGGIGGDGGTLTAGGIGGAGGAGGNAGLLFGSGGSGGAGGFGFADGGQGGPGGNAGTVFGSGGAGGNGGVGQGFAGGIGGAGGTPGLIGNGGNGGNGGASAVTGGNGGIGGTGVLIGNGGNGGSGGIGAGKAGVGGVSGLLLGLDGFNAPASTSPLHTLQQNVLNVVNEPFQTLTGRPLIGNGANGTPGTGADGGAGGWLFGNGANGTPGTGAAGGAGGWLFGNGGNGGHGATNTAATATGGAGGAGGILFGTGGNGGTGGIATGAGGIGGAGGAGGVSLLIGSGGTGGNGGNSIGVAGIGGAGGRGGDAGLLFGAAGTGGHGAAGGVPAGVGGAGGNGGLFANGGAGGAGGFNAAGGNGGNGGLFGTGGTGGAGTNFGAGGNGGNGGLFGAGGTGGAAGSGGSGITTGGGGHGGNAGLLSLGASGGAGGSGGASSLAGGAGGTGGNGALLFGFRGAGGAGGHGGAALTSIQQGGAGGAGGNGGLLFGSAGAGGAGGSGANALGAGTGGTGGDGGHAGVFGNGGDGGCRRVWRRYRRQRWCRRQRRADRQRRQRRQRRQSRGHARCRRHRRAAARRERTQRLAIAGRPATTRGVEGISCSPQMMP
B5: Rv0985c: MTB protein, novel CD4 T cell antigen; Cell wall and cell processes (protein, listed as Mycobacterium tuberculosis)
chain: MLKGFKEFLARGNIVDLAVAVVIGTAFTALVTKFTDSIITPLINRIGVNAQSDVGILRIGIGGGQTIDLNVLLSAAINFFLIAFAVYFLVVLPYNTLRKKGEVEQPGDTQVVLLTEIRDLLAQTNGDSPGRHGGRGTPSPTDGPRASTESQ
B6: Rv0299: MTB protein, novel CD4 T cell antigen; Conserved hypotheticals (protein, listed as Mycobacterium tuberculosis)
chain: MIAPGDIAPRRDSEHELYVAVLSNALHRAADTGRVITCPFIPGRVPEDLLAMVVAVEQPNGTLLPELVQWLHVAALGAPLGNAGVAALREAASVVTALLC
B7: Rv0298: MTB protein, novel CD4 T cell antigen; Conserved hypotheticals (protein, listed as Mycobacterium tuberculosis)
chain: MTKEKISVTVDAAVLAAIDADARAAGLNRSEMIEQALRNEHLRVALRDYTAKTVPALDIDAYAQRVYQANRAAGS
B8: Rv0690c: MTB protein, novel CD4 T cell antigen; Conserved hypotheticals (protein, listed as Mycobacterium tuberculosis)
chain: MTGTEHLVHTLRSQGRVCTSSGSPMYRELLELVAADVESGGVFASILADQKGAPEGQAVPLRLLGGLHRMVLDGRAPVLRRWYPSTGGTWQAEAAWPDIVRTATDQPESLRAALDRPPQTNEVGRSAALIGGLLIACLQFDLPIRLFEIGSSAGLNLRPDRYRYRYLGGEWGLADSPVRIDNAWLGELPPTATVRIVERHGYDIAPIDVTSPDGELNALSYIWPDQTDRLERLRGAIAVARNIPADLHRQAAHAAVAGMTLTDDALTVLWHSITWQYLPADERAAIRAGIDALAAQADAHCPFVHLTLEPAHQRPGAQIKYLVRMRSWPGGHARVLGECHPHGPPVTWQ
B9: Rv3025c: MTB protein, novel CD4 T cell antigen; Intermediary metabolism and respiration, Island 2 (protein, listed as Mycobacterium tuberculosis)
chain: MAYLDHAATTPMHPAAIEAMAAVQRTIGNASSLHTSGRSARRRIEEARELIADKLGARPSEVIFTAGGTESDNLAVKGIYWARRDAEPHRRRIVTTEVEHHAVLDSVNWLVEHEGAHVTWLPTAADGSVSATALREALQSHDDVALVSVMWANNEVGTILPIAEMSVVAMEFGVPMHSDAIQAVGQLPLDFGASGLSAMSVAGHKFGGPPGVGALLLRRDVTCVPLMHGGGQERDIRSGTPDVASAVGMATAAQIAVDGLEENSARLRLLRDRLVEGVLAEIDDVCLNGADDPMRLAGNAHFTFRGCEGDALLMLLDANGIECSTGSACTAGVAQPSHVLIAMGVDAASARGSLRLSLGHTSVEADVDAALEVLPGAVARARRAALAAAGASR
B10: Rv0279c: MTB protein, novel CD4 T cell antigen; PE/PPE (protein, listed as Mycobacterium tuberculosis)
chain: MSFVIAAPEVIAAAATDLASLESSIAAANAAAAANTTALLAAGADEVSTAVAALFGAHGQAYQALSAQAQAFHAQFVQALTSGGGAYAAAEAAATSPLLAPINEFFLANTGRPLIGNGTNGAPGTGANGGDGGWLIGNGGAGGSGAAGVNGGAGGNGGAGGLIGNGGAGGAGGRASTGTGGAGGAGGAAGMLFGAAGVGGPGGFAAAFGATGGAGGAGGNGGLFADGGVGGAGGATDAGTGGAGGSGGNGGLFGAGGTGGPGGFGIFGGGAGGDGGSGGLFGAGGTGGSGGTSIINVGGNGGAGGDAGMLSLGAAGGAGGSGGSNPDGGGGAGGIGGDGGTLFGSGGAGGVCGLGFDAGGAGGAGGKAGLLIGAGGAGGAGGGSFAGAGGTGGAGGAPGLVGNAGNGGNGGASANGAGAAGGAGGSGVLIGNGGNGGSGGTGAPAGTAGAGGLGGQLLGRDGFNAPASTPLHTLQQQILNAINEPTQALTGRPLIGNGANGTPGTGADGGAGGWLFGNGGNGGHGATGADGGDGGSGGAGGILSGIGGTGGSGGIGTTGQGGTGGTGGAALLIGSGGTGGSGGFGLDTGGAGGRGGDAGLFLGAAGTGGQAALSQNFIGAGGTAGAGGTGGLFANGGAGGAGGFGANGGTGGNGLLFGAGGTGGAGTLGADGGAGGHGGLFGAGGTGGAGGSSGGTFGGNGGSGGNAGLLALGASGGAGGSGGSALNVGGTGGVGGNGGSGGSLFGFGGAGGTGGSSGIGSSGGTGGDGGTAGVFGNGGDGGAGGFGADTGGNSSSVPNAVLIGNGGNGGNGGKAGGTPGAGGTSGLIIGENGLNGL
B11: Rv3012c: MTB protein, novel CD4 T cell antigen; Information pathways (protein, listed as Mycobacterium tuberculosis)
chain: MSQISRDEVAHLARLARLALTETELDSFAGQLDAILTHVSQIQAVDVTGVQATDNPLKDVNVTRPDETVPCLTQRQVLDQAPDAVDGRFAVPQILGDEQ

One assay deals with PBMCs from LTBI donors (IFN-γ production). It is filed as cell-based, human. The settings on record: fraction of 28 LTBI donors responding to epitopes of the antigen, ex vivo IFN-γ ELISPOT.
Take B1: the Resp. freq. came to 11%.

B2 displayed a Resp. freq. of 11%.

B3 returned a Resp. freq. of 11%.

With B4, the Resp. freq. came out at 11%.

In turn, B5 came in with a Resp. freq. of 11%.

B6 gave a Resp. freq. of 14%.

B7: the Resp. freq. is on record as 11%.

Molecule B8 came in with a Resp. freq. of 11%.

Consider B9, for which the Resp. freq. is on record as 14%.

With B10, the Resp. freq. is recorded as 11%.

B11: the Resp. freq. amounted to 14%.

The same assay, now with this note: total spot-forming cells, LTBI donors, ex vivo IFN-γ ELISPOT.
For B1, the “Total SFC” value worked out at 237 SFC.

As for B2, the “Total SFC” value is listed as 133 SFC.

As to B3, the “Total SFC” value amounted to 232 SFC.

In the case of B4, the “Total SFC” value worked out at 45 SFC.

With B5, the “Total SFC” value was 70 SFC.

For B6, the “Total SFC” value came out at 467 SFC.

B7: the “Total SFC” value is reported as 783 SFC.

In the case of B8, the “Total SFC” value was 233 SFC.

Take B9: the “Total SFC” value came to 423 SFC.

In the case of B10, the “Total SFC” value was found to be 45 SFC.

For B11, the “Total SFC” value came out at 233 SFC.
